Reference: patent CN116836273A (DONGGUAN PENGZHI BIOTECHNOLOGY CO LTD, dated 2023)
Changes are numbered by the printed parent chain.

B1: Anti-SAA 4B3mut1 (antibody, mouse IgG1, kappa, V domains shown)
VH: QVQLQQSGAELVKPGASVKLSCKTSGYTFTNKYIYWLKQRPGQGLEWIGEIDPSNGATKFNEKFTNKATLTVDRSSTTAYVELSSLTSEDSAVYYCARGAYWGHGTLVTVSA
VL: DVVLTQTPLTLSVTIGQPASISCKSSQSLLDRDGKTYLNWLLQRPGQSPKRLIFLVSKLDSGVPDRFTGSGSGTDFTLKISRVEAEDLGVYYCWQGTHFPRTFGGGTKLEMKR
notes: Recombinant monoclonal antibody made in CHO cells, a mutant of Anti-SAA 4B3
B2: Anti-SAA 9G5mut1 (antibody, mouse IgG2a, kappa)
heavy: EVHLQQSGAELVTPGASVKLSCTASGFNIKDTYMHWVKQRPEQGLEWIGRIDPANGNTKYDPKFQGKATMTADTSSNTAYLQLSSLTSEDTAVYYCARGGNYDWGQGTTLSVSSAKTTAPSVYPLAPVCGDTTGSSVTLGCLVKGYFPEPVTLTWNSGSLSSGVHTFPAVLQSDLYTLSSSVTVTSSTWPSQSITCNVAHPASSTKVDKKIEPRGPTIKPCPPCKCPAPNLLGGPSVFIFPPKIKDVLMISLSPIVTCVVVDVSEDDPDVQISWFVNNVEVHTAQTQTHREDYNSTLRVVSALPIQHQDWMSGKEFKCKVNNKDLPAPIERTISKPKGSVRAPQVYVLPPPEEEMTKKQVTLTCMVTDFMPEDIYVEWTNNGKTELNYKNTEPVLDSDGSYFMYSKLRVEKKNWVERNSYSCSVVHEGLHNHHTTKSFSRTPGK
light: DIVLTQSPASLAVSLGQRATISCKASQSVDYDGYSYLNWYQQKPGQPPKLLISAASNLESGIPARFSGSGSGTDFTLNIHPVEEEDAATYYCQQSNEDPYTFGGGTKLQIKRADAAPTVSIFPPSSEQLTSGGASVVCFLNNFYPKDINVKWKIDGSERQNGVLNSWTDQDSKDSTYSMSSTLTLTKDEYERHNSYTCEATHKTSTSPIVKSFNRNEC
notes: Recombinant monoclonal antibody made in CHO cells, a mutant of Anti-SAA 9G5
B3: Anti-SAA 9G5mut2 (antibody, mouse IgG2a, kappa)
heavy: B2 heavy
light: B2 light with I21L
notes: as for B2

biological target: T1, 血清淀粉样蛋白A (Serum amyloid A, SAA) (UniProt P0DJI8 19-122, limits assumed); test: BLI, antibody captured on AMC sensor, SAA in solution
T1 construct: Bought antigen
T1 sequence (looked up): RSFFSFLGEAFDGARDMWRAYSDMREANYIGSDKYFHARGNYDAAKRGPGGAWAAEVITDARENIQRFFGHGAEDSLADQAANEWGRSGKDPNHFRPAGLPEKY

| Binder | Kd | koff | kon |
| --- | --- | --- | --- |
| B1 | 0.897 nM | 6.75e-05 s⁻¹ | 75200 M⁻¹ s⁻¹ |
| B2 | 0.906 nM | 6.67e-05 s⁻¹ | 73600 M⁻¹ s⁻¹ |
| B3 | 0.875 nM | 6.52e-05 s⁻¹ | 74500 M⁻¹ s⁻¹ |

biological target: T1, 血清淀粉样蛋白A (Serum amyloid A, SAA); test: indirect ELISA, SAA coated at 2 ug/ml, antibody at 15 ng/ml

| Binder | OD |
| --- | --- |
| B1 | 1.13 OD450 (ref. 630 nm) |
| B2 | 1.23 OD450 (ref. 630 nm) |
| B3 | 1.3 OD450 (ref. 630 nm) |

biological target: T1, 血清淀粉样蛋白A (Serum amyloid A, SAA); test: indirect ELISA, SAA coated at 2 ug/ml, antibody at 30 ng/ml

| Binder | OD |
| --- | --- |
| B1 | 1.51 OD450 (ref. 630 nm) |
| B2 | 1.95 OD450 (ref. 630 nm) |
| B3 | 2.01 OD450 (ref. 630 nm) |

biological target: T1, 血清淀粉样蛋白A (Serum amyloid A, SAA); test: indirect ELISA, SAA coated at 2 ug/ml, antibody at 60 ng/ml

| Binder | OD |
| --- | --- |
| B1 | 2.21 OD450 (ref. 630 nm) |
| B2 | 2.26 OD450 (ref. 630 nm) |
| B3 | 2.31 OD450 (ref. 630 nm) |

biological target: T1, 血清淀粉样蛋白A (Serum amyloid A, SAA); test: indirect ELISA, SAA coated at 2 ug/ml, antibody at 7.5 ng/ml

| Binder | OD |
| --- | --- |
| B1 | 0.635 OD450 (ref. 630 nm) |
| B2 | 0.767 OD450 (ref. 630 nm) |
| B3 | 0.801 OD450 (ref. 630 nm) |

biological target: T1, 血清淀粉样蛋白A (Serum amyloid A, SAA); test: indirect ELISA, SAA coated at 2 ug/ml, antibody at 3.75 ng/ml

| Binder | OD |
| --- | --- |
| B1 | 0.386 OD450 (ref. 630 nm) |
| B2 | 0.474 OD450 (ref. 630 nm) |
| B3 | 0.501 OD450 (ref. 630 nm) |

biological target: T1, 血清淀粉样蛋白A (Serum amyloid A, SAA); test: indirect ELISA, SAA coated at 2 ug/ml, antibody at 0 ng/ml (blank)

| Binder | OD |
| --- | --- |
| B1 | 0.007 OD450 (ref. 630 nm) |
| B2 | 0.011 OD450 (ref. 630 nm) |
| B3 | 0.011 OD450 (ref. 630 nm) |
